One protein from PMC3458437 can be followed below.

Several values for one entry are separate records, joined by “and”; a condition that tells them apart may be missing. Equal entries are not always repeated.

Substrate in this data set: O=P(O)(O)CCO
Nature of the data set: O2 consumption, Clark-type oxygen electrode, initial rates. Type of data set: biochemical, Nitrosopumilus maritimus. The conditions noted are these: co-substrate O2 about 250 μM; Fe(II)-reconstituted enzyme; labelled compound.

B1: methylphosphonate synthase (MPnS) (Nitrosopumilus maritimus SCM1) (protein)
chain: MEKKIDFKPDSYLIRSGNNFLGILNDIKRRPEDAANELGVSIEEINSIISGKQKISPSLIEKAVNIWPVNERDFYIVSDDCSSGILIMTSQDSIKSSRIMERAGKPYYEYRDTAMSKTAPFRPEWILELCKVENNDPENPKAQWNNGHFMHQFTYFIGEVNFYYKDPEGKKHVAIMNTGDSMYITPFTPHTFTTRDGASQNGLILALTYGSKLTGDIQQELSSLSLDCGSQYALDFTNHENASLSLLEYYFELSNLTKEKFAKRTNFSMETLADFFTKKKLPTFDELKIIAKALNVNSRDLMPNDLTESKVIVKTHDQCDHWKYPESGNYEFYELASTTALPHSKAFEIDVSSSEDLNLDLKVGLHQYVYNIGDSALTINWNYENKTYQKSLNPGDSAYIKPFVPHNFRGNGKILILRIGGKISGDSQRELSFVGRENTQRAISETMQWFDPKGSNS
One may read the Km as the substrate concentration at which the rate is half of its maximum. By kcat is commonly meant the maximal rate divided by the concentration of active sites. What is called kcat/Km is the turnover number divided by the Michaelis constant. With B1, the Km is 7.1 ± 0.8 µM and 6.5 ± 1.5 µM and 7.2 ± 1.4 µM; the kcat was 0.17 ± 0.01 s⁻¹; the kcat/Km is 24000 M⁻¹ s⁻¹ (2×) and 26000 M⁻¹ s⁻¹.
